Laboratory results taken from a protein production outcome set (Wang et al. 2014).

Assay: label from the status in PepcDB records

| Sequence | protein production |
| --- | --- |
| MATPKLEAYRKKRDFSKTPEPVGNLTAGGNRFVVHKHHATADHYDLRLEVDGVLKSWAVPKGPSLNPADKRLAVETEDHPLDYIDFEGVIPEGEYGGGPMIVWDKGVWAPMGDVDDDLRKGAFKFRLAGEKLNGGWMLARLKRRPGEEDQRNWLLFKERDPAADTSIDILAARPESVKSGRRIEELVEKPKAPPKPVKLNPGALAGAVKAAQPERIEPQLATQTILPPEAEKDSKKPERWLHEIKFDGYRTMAHVADGKVRLVTRGGLDWTKRYGDLPEVFRRLPCRDVIIDGEIVVLDETGVSRFALLQDALSTGAGNSLVFYAFDLLHLNGWNLFDVPLEKRKALLKQLLAGQVSSRSAIQFSDHVLGEGRALYDRASEMGLEGIVSKRISAPYRSGRSKTWTKTKALKAEDFVIVGYTVSEAAEGIASLALGEWADGELEYRGKVGTGFDAQMLKELLARLEPLRAGAAKLEGAPREIIWVRPLLRAHIHYGNRTTDNVLRHAVFKGLRDVELSTPVSMSRKRLISDADLAGISITNPTRRLFGKSGPTKLDLAVYYAMIGDFMLPHILGRPVSLVRCPTGRTQDCFFQRHPFTGMPPSVATFQATNSEGEAKTYLSVEDARGYLALAQFGVVEFHNWGTTRKLLGKPDRVVFDLDPGEGIAWREVVEAAIHIKAELEALALVPFVKTSGGRGVHVVVPVVPKLDWKKFHQATSALATRLAATAPATFTTTMGKDNRIRRIFIDFHRNARSHTWAAPYSLRARTNLPASTPLSWADLETIDAPADLNYSSLPGLLATSGDPWADIDDFARDLPIL | failed |
| GVLDDIRFGVRRTLNARIASQAQWYALGAEQLARTRIAQLMDREPNKTTLEGGWNGRVISFPIEQGRMEAKLTDATGCFNLNSVVEANQGEPFRRRELGVRQFTTLLSLVGVSNGPELAENLADWMDSNDVGRAEAEDPGYAQLAQPYRTAGGPLAEVSELRAIRGFTPSVYAALRPYVCALPTTDLSPINVNTLPPERALLLTALTEGRIGRETAARVLSGRPVNGWPDAQAFWGQQALVATPPGDVVRDQIKFRTRFFALDSQIVFADMPVFMTALFETPSASKVILA | failed |
| MLVGPAPTTDGSAENTLNEKRLVHGSIAFWLGPRAPQTKTHRWTVYVRGARDPLEDLSLYIQKVEFVLHESFADPVRVVKEPPFCLTEHGWGEFEVIIRLFPISDPDKPVEMYHPLRLFPSVGQELTEKPVVSEHLDVLVFSQPAPEVERALHRSDVARMPSDCWGDLMPLFGGDLHQVEEEDLRKVQQARERVRQQIQATRLQYEALTAELARARTHALHRELS | not failed |
| MNMGKKIQEMAVWLEFLVGSGLAIFFHLVLHYEQAAYVIFGIGILLALGTYLIREEIEKNRSHLVEQYQQAHEIPFAMAGIADPECLAKAHELIAGTRRTITILQQGYIPLDENEFYLEGAKLSDQAVREIRAVDPLMAGWWTRGALVNFYQANLRALDRGVRIRRIFVVNREELGEPEVQKVLLSHYRDDIDIRIVYRDELPAAGEIIGRDTNSSFDFALYDDRVATDVFAHPGKYYGRKTAQPMEVAKYRHLYELIEHSAHTVSEDGDRIVPSAEVMPLAS | failed |
| MSKELLGVSAVGLMVLGEFCAIYSEVVVARLAHSGNTSGAELALPVLIMCLGGICLLAAYWLGYVAVGDIWIITVVSVTSLLLLEPLVIWALFQQAPGRGALIGFCLGALGMLSAVFL | failed |
| MVIRELNNNWQSHAFDGYEVNWTEQQQTVSCLHTLVYPLAQGQGLHVTGISWNSTGSVLACAYGRLDDGDWSTLKSYVCTWNLDRQGLNPQQPSVVVEVPSAVMCLAFHPTQPSHIAGGLYSGEVLVWDMSRPEDPLLWRTGLTDDTHTDPVYQVLWLPEPRHSHRFQVLSAATDGKVLLWRGSGAGQLRLTKGFALAVQQLPRSTKLKKPPRGETEVGVTSVAFSSFDSSLFVLGTEGGFPLKCSLASEVAALTRMPSSVPLRAPVQFTFSPHGGPVYSVSCSPFHRNLFLSAGTDGHVHLYSMLQAQPLTSLQLSHKYLFAVRWSPVRPLVFAAASGEGDVQLFDLQKSSQKPTVSITQTQDGSPVYCLEFNSQQTQLLAAGDAKGMVKVWQLSTAFTEQGPREVEDLDQLEAEITT | failed |
| MHCNDGGPATLGLFSDSDLQQPARVEVLGPQSRVLRGFALPWVEALLPQLDAVLAAAPFRQMQTPGGFTMSVGLSSCGQLGWTTDRSGYRYSPIDPQSQRPWPALPKVFQELAEAAAEAAGFPGFAPDSCLINCYRPGAKMSLHQDKNERDYSAPIVSLSLGLPAIFLFGGRQRSDKSQRVALLHGDVVVWGGVDRLRYHGVLALKDGHHPLLGQQRINLTLRRAGLEHHHHHH | failed |
| MEFFAVSLDSHVFSHIKEIFLYNHNQKFYVVMMKHDDVLMILAAAALMFSFSWVHGMLLVLPLLAIPQLSSRTLKWGVLVLAVFVALLILQPMTRAVGLNISDELFRLVLLLLFTFMVALLIERIEKVRSLRELNLELKKQAEKLEDANKELEAFAYSVSHDLRVPLRAIDGFSRILVEDYEDKLDDEGVRILGIIRDNTRKMGQLIDDILLLSRAGRQEMNLAMLDMRELAESTYRELASQEEGRSIEFSVADLPPAMADRALMGQVMGNLLSNAIKFTRDRDPAVIEVGYMDGGDEHTYYVKDNGAGFDMKYASKLFGLFQRLHSQEEFEGTGVGLSIVQRIIKRHGGRVWGEGKVDGGATIYFTLPKVVK | failed |
| SEAKVTRSCAETRQVLGARGYSLNLIPPALISGEHLRVCPQEYTCCSSETEQRLIRETEATFRGLVEDSGSFLVHTLAARHRKFDEFFLEMLSVAQHSLTQLFSHSYGRLYAQHALIFNGLFSRLRDFYGESGEGLDDTLADFWAQLLERVFPLLHPQYSFPPDYLLCLSRLASSTDGSLQPFGDSPRRLRLQITRTLVAARAFVQGLETGRNVVSEALKVPVSEGCSQALMRLIGCPLCRGVPSLMPCQGFCLNVVRGCLSSRGLEPDWGNYLDGLLILADKLQGPFSFELTAESIGVKISEGLMYLQENSAKVSAQVFQECGPPDPVPARNRRAPPPREEAGRLWSMVTEEERPTTAAGTNLHRLVWELRERLARMRGFWARLSLTVCGDSRMAADASLEAAPCWTGAGRGRYLPPVVGGSPAEQVNNPELKVDASGPDVPTRRRRLQLRAATARMKTAALGHDLDGQDADEDASGSGGGQQYADDWMAGAVAPPARPPRPPYPPRRDGSGGKGGGGSARYNQGRSRSGGASIGFHTQTILILSLSALALLGPR | failed |
| MLTFFIGDLLPIIVIMLLGYFSGRRETFSEDQARAFNKLVLNYALPAALFVSITRANREMIFADTRLTLVSLVVIVGCFFFSWFGCYKFFKRTHAEAAVCALIAGSPTIGFLGFAVLDPIYGDSVSTGLVVAIISIIVNAITIPIGLYLLNPSSGADGKKNSNLSALISAAKEPVVWAPVLATILVLVGVKIPAAWDPTFNLIAKANSGVAVFAAGLTLAAHKFEFSAEIAYNTFLKLILMPLALLLVGMACHLNSEHLQMMVLAGALPPAFSGIIIASRFNVYTRTGTASLAVSVLGFVVTAPLWIYVSRLVS | failed |
| MAENLRDSVVHRDIALLSFCAPVMLERLPSSFVKHIELWLSAAGLGIIFGVGYASGPSGPAFWRLIAVIAVGIGVVHGFIFWAVRRRQRQVRRQSIREIQQMLSDVLKNKLAAINMYLPEDADEEMVKQELDGVRASIEDIADEIENISEESIEGWKEHYSGAVERTTNL | failed |
| MEAEEIIGLLKKGDLEKAKDALSKEIDNLSDEELKEILEVAESVAKEKEDIELLKLVVYYYAEFFGIDKLEEFEGIAKEKGYEGLMHLADLYSLLGYPEKALDIYRELLKTDLIKEKEHIGEIYYGIATIHDELQEYDKALEAINEAVKAFKESNNVEKLHQAEVYRAYITFENGDRDKAKEILAGLLPHVTNREIKAQIHLVFKEIFEDEENYEAAIQESLYSLIEGIDTEVFDLAFDGLIDLIWELILEDKFEEIYKSMPMFKVAIPSLKDFFEGVRRIAMYREGKIGREEVSEILMKVKDERLVSILEFLGEAEV | failed |
| VTLLVKSPNQRHRDLELSGDRGWSVGHLKAHLSRVYPERPRPEDQRLIYSGKLLLDHQCLRDLLPKQEKRHVLHLVCNVK | not failed |
| MTETGDDLATVKKPIPFLVIFKDLRHVFSRDTTGREILGIAFPAALALAADPIASLIDTAFVGRLGAVQLAAVGVSIAIFNQASRITIFPLVSLTTSFVAEEDTMEKMKEEANKANLVHAETILVQDSLEKGISSPTSNDTNQPQQPPAPDTKSNSGNKSNKKEKRTIRTASTAMILGLILGLVQAIFLIFSSKLLLGVMGVKPNSPMLSPAHKYLSIRALGAPALLLSLAMQGIFRGFKDTKTPLFATVVADVINIVLDPIFIFVLRLGIIGAAIAHVISQYFMTLILFVFLAKKVNLIPPNFGDLQFGRFLKNGLLLLARTIAVTFCQTLAAAMAARLGTTPMAAFQICLQVWLTSSLLNDGLAVAGQAILACSFAEKDYNKVTAVASRVLQMGFVLGLGLSVFVGLGLYFGAGVFSKDPAVIHLMAIGIPFIAATQPINSLAFVLDGVNFGASDFAYTAYSMVGVAAISIAAVIYMAKTNGFIGIWIALTIYMALRAITGIARMATGTGPWRFLRGRSSSSSS | failed |
| MALANFIDRAATAASQVLADFHLEDFKAALEKQVVAVAFDDQAASCAEGQATLDLAVRLLARLYPVLAILPLGSAASFQAQALERLAKSINPKVGIRRSGKSATICVVAGVTRPPLRCPTFFMGSDGWAAKLSRTDPVGSGSSLLPYGAGAASCFGAANVFRTIFAAQLTGAELDETIDLSLYSYDKTKAGEAGPIDIPVDLGETHLVGLGAIGHGSLWALARQPGLTGRLHVIDHEAIELSNLQRYVLAGQAEIGMSKAVLAATALRSTAIGVEAHPLTWAEYVARHGDWVFDRVGVALDTAADRLAVQGALPRWIANAWTQEHDLGISRHGFDDGQACLCCMYLPSGKSKDEHHLIAEELGIPEAHEQVKTLLQTNAGVPNDFVVRVATAMAVPFEPLAPFVGQPLRSFYQQAICGGLVFQLSDGSRRVRTVVPMAFQSALAGIMLAAELVKHSAGFPVGPTTSTRVNLLRPLGSRLHDPKAKDSSGRCICSDDDFIAAYRRKYGKSIVQLSDVSAA | failed |
| MTTTQPEAKDRISSLPVPDATQVPEGVRKLWAKAEANIGFVPNVFRAQAVNGEQFLAWWNYFNLLLNKEGYLTNAERELVAVVVSGVNRCLYCAVSHGAALREFLGDPQKADAVAVNWRHADLTEREQALAAYAEKLTRHPAEVTAADLEPLRAVGLDDHQIMELVQVIGMFNLTNRVSSALGFVPNPEYYRQAR | not failed |
| MTPAAHPPRAAIADIAGHLPEQVLTNDVLAQLYPDWPAEKILAKTGIRERRIAAPRETAADLAYEAARKLFAQGAVGADQVDFVILCTQAPDYVLPTSACMLQHRLGIPTHAGALDVNLGCSGYVYGLSLAKGLVETGAARCVLLLTADTYSKYLHPLDKSVRTLFGDGASATAVIAEHGELERIGPFVFGTDGRGAPNLIVKAGLFREPKSADSAREHEDASGNVRTDEHLYMNGAEVMAFSLAEVPRAADRLLALAGEPRENIDCFVLHQANRFMLDALRKKMKIPEHKFPVLMEHCGNTVSSTLPLALETMRANGTLARGMRLMLLGFGVGYSWAGCLVNF | not failed |
| MLFTMMVSLYTSRVVLATLGVEDFGIYNVVGGVVTMFAIISTSLSSAISRFITIELGKGDLRRLKTVFSTAVVIQFLMALVVVILAELIGVWFLNNKMNIPEVRMNAANWVLQFSIFTFGVNLICIPFNALIIAHERMSAFAYVSILEVSLKLLIVYLLVLMSVDKLIVYGALLLVVAIVITFAYFIYCRRHFKECKCFCRIDRFLLKRMLSFSGWNFIGASSAILRDQGVNIAINLFCGPTVNAARGMAVQVNHAINSFAQNFMTALNPQITKSFAVGDSKYMFTLIFQGARLSFYMLLFLSLPVLMSTEYILSIWLKIVPDYTIIFVRLVLIFAMCESISNPLITAMLATGSIRNYQIVVGGMQMMNFPISYILLERGYAPEITLYVAIGISLCCLALRLFMLRSMIQLPVRSYMKNVFFNICAVTIFSVAIPYLISLRLQSSFYSFLILSFSCIICSFMAIFFVGCKASERVFVVDQVRKLIKNNL | failed |
| MGTSKYSPEFRADAVALYHASPGGTYASVAKDLGVNHETLRTWVRDAEQAGRPGAVEATAMDKENRQLRARVKELELEREILRRAAKYFAAETSWLEHHHHHH | not failed |
